The source of these data is paper PMC11606499, “Molecular principles of the assembly and construction of a carboxysome shell” (Science Advances, 2024).

To fix the notation:
T1: C-terminal domain of CsoS2 (CsoS2-C) (Halothiobacillus neapolitanus c2, UniProt O85041 604-869)
T1 construct: CsoS2, scaffolding/linker protein of the α-carboxysome, Halothiobacillus neapolitanus c2; source: E. coli BW25113, midi-shell operon or CsoS1C-based mini-shell operon, in purified shells
T1 sequence (looked up): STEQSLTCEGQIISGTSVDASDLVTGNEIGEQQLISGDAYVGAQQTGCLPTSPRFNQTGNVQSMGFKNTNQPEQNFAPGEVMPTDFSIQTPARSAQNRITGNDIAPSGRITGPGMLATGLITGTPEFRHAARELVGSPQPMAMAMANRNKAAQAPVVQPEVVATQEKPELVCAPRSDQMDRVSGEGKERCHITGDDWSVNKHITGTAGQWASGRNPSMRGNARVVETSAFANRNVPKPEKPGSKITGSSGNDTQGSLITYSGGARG

T2: CsoS4A (untagged, coexpressed with His-tagged CsoS4B) (Halothiobacillus neapolitanus c2, UniProt O85043 1-83)
T2 construct: CsoS4A, Halothiobacillus neapolitanus c2; gene amplified from the cso-2 operon, the His tag stands on CsoS4B only; source: E. coli BL21 (DE3), pET-22b csoS4A-csoS4B, co-purified with His-tagged CsoS4B (Ni-NTA, Superdex 200)
T2 sequence: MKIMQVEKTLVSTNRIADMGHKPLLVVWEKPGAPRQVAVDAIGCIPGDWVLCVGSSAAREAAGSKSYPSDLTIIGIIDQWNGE

B1: CsoS4A (in recombinant α-carboxysome shells) (natural protein, Halothiobacillus neapolitanus c2)
chain: T2 sequence
notes: CsoS4A, pentameric vertex protein of the α-carboxysome shell, Halothiobacillus neapolitanus c2; the gene as it stands in the shell operon; All pentamers of the shell models were assigned to CsoS4A; also called CsoS4 pentamer; BMC-P; source: E. coli BW25113, midi-shell operon or CsoS1C-based mini-shell operon, in purified shells
B2: CsoS4A (individually expressed, C-terminal His tag) (natural protein, Halothiobacillus neapolitanus c2)
chain: T2 sequence
notes: CsoS4A, Halothiobacillus neapolitanus c2; gene fragment amplified from the cso-2 operon; In solution pentamers and other aggregation forms; source: E. coli BL21 (DE3), pET-22b, purified (Ni-NTA, Superdex 200)
B3: CsoS1A (in recombinant α-carboxysome midi-shells) (natural protein, Halothiobacillus neapolitanus c2)
chain: MADVTGIALGMIETRGLVPAIEAADAMTKAAEVRLVGRQFVGGGYVTVLVRGETGAVNAAVRAGADACERVGDGLVAAHIIARVHSEVENILPKAPQA
notes: CsoS1A, hexameric shell protein of the α-carboxysome, Halothiobacillus neapolitanus c2; the gene as it stands in the midi-shell operon derived from the synthetic cso-2 operon; CsoS1A, CsoS1B and CsoS1C could not be told apart in the symmetrised maps; also called CsoS1 hexamer; BMC-H; source: E. coli BW25113, midi-shell operon (L-arabinose induced), in purified shells
B4: CsoS1A (untagged, coexpressed with His-tagged CsoS1B) (natural protein, Halothiobacillus neapolitanus c2)
chain: B3 chain
notes: CsoS1A, Halothiobacillus neapolitanus c2; gene amplified from the cso-2 operon, the His tag stands on CsoS1B only; also called S1A-S1B (coexpressed sample); source: E. coli BL21 (DE3), pET-22b csoS1A-csoS1B, co-purified with His-tagged CsoS1B (Ni-NTA, Superdex 200)
B5: His-tagged CsoS1A (individually expressed) (natural protein, Halothiobacillus neapolitanus c2)
chain: B3 chain
notes: CsoS1A, Halothiobacillus neapolitanus c2; gene fragment amplified from the cso-2 operon; source: E. coli BL21 (DE3), pET-22b, purified (Ni-NTA, Superdex 200); not shown: His tag, C-terminal, kept
B6: CsoS1C (in the CsoS1C-based T = 9 mini-shell) (natural protein, Halothiobacillus neapolitanus c2)
chain: B3 chain with D3A, Q97E
notes: CsoS1C, shell hexamer paralog, Halothiobacillus neapolitanus c2; differs from CsoS1A at the 3rd and 97th amino acids; the gene as it stands in the mini-shell operon; source: E. coli BW25113, CsoS1C-based mini-shell operon, in purified shells
B7: CsoS1C (individually expressed, C-terminal His tag) (natural protein, Halothiobacillus neapolitanus c2)
chain: B3 chain with D3A, Q97E
notes: CsoS1C, Halothiobacillus neapolitanus c2; gene fragment amplified from the cso-2 operon; source: E. coli BL21 (DE3), pET-22b, purified (Ni-NTA, Superdex 200)
B8: CsoS1C (untagged, coexpressed with His-tagged CsoS1B) (natural protein, Halothiobacillus neapolitanus c2)
chain: B3 chain with D3A, Q97E
notes: CsoS1C, Halothiobacillus neapolitanus c2; gene amplified from the cso-2 operon, the His tag stands on CsoS1B only; source: E. coli BL21 (DE3), pET-22b csoS1C-csoS1B, co-purified with His-tagged CsoS1B (Ni-NTA, Superdex 200)
B9: His-tagged CsoS1B (expressed alone or coexpressed with CsoS1A or CsoS1C) (natural protein, Halothiobacillus neapolitanus c2, UniProt P45690 1-110, looked up)
chain: MATTHGIALGMIETRGLVPAIEAADAMTKAAEVRLVGRSFVGGGYVTVMVRGETGAVNAAVRAGADACERVGDGLVAAHIIARVHSEVEIILPETPEDSDSAWCIANLNS
notes: CsoS1B, Halothiobacillus neapolitanus c2; gene fragment amplified from the cso-2 operon; Six copies when expressed alone; about 1.5 copies per hexamer in the coexpressed CsoS1A/B sample; source: E. coli BL21 (DE3), pET-22b, purified (Ni-NTA, Superdex 200); not shown: His tag, C-terminal, kept
B10: CsoS4B (C-terminal His tag; expressed alone or coexpressed with CsoS4A) (natural protein, Halothiobacillus neapolitanus c2, UniProt O85044 1-81, looked up)
chain: MEVMRVRSDLIATRRIPGLKNISLRVMEDATGKVSVACDPIGVPEGCWVFTISGSAARFGVGDFEILTDLTIGGIIDHWVT
notes: CsoS4B, Halothiobacillus neapolitanus c2; gene fragment amplified from the cso-2 operon; Five copies when expressed alone; source: E. coli BL21 (DE3), pET-22b, purified (Ni-NTA, Superdex 200)

Numbering of substitutions follows the chain as printed. Numbers in names are those of the source.

Data set [1] deals with B3. The data set is described as follows: cryo-EM structure; purified midi-shells assembled in E. coli from the coexpressed proteins; T = 9, T = 9 Q = 12, T = 13, T = 16 and T = 19 shells at 2.3, 2.99, 2.93, 2.75 and 3.04 Å, symmetry imposed. The note with it: both partners purified.
Data set [2] deals with the molecule itself. The description is as above.
Data set [3] has as its target B6. The data set is described as follows: cryo-EM structure; purified CsoS1C-based T = 9 mini-shell assembled in E. coli from the coexpressed proteins; 1.8 Å. Conditions: both partners purified.
Data set [4] concerns the molecule itself. The data set is described as follows: SEC; Superdex 200 in 50 mM tris-HCl pH 8.0, 100 mM NaCl; individually expressed CsoS4 proteins. A general note: SEC sorts molecules by how far they enter the pores of the column.
The target in data set [5] is T1, C-terminal domain of CsoS2 (CsoS2-C). The data set is described as follows: cryo-EM structure; purified midi-shells assembled in E. coli from the coexpressed proteins; T = 9, T = 9 Q = 12, T = 13, T = 16 and T = 19 shells at 2.3, 2.99, 2.93, 2.75 and 3.04 Å, symmetry imposed. Conditions: both partners purified.
Data set [6] has as its target B9. The data set is described as follows: SDS-PAGE of washed crystals; crystals of the coexpressed CsoS1A and His-tagged CsoS1B sample, washed with buffer for various times before SDS-PAGE. Conditions: both partners purified.
Data set [7] concerns the molecule itself. In words: crystal structure; crystals of the purified coexpressed CsoS1A and His-tagged CsoS1B sample, hanging drop, 18°C; 2.1 Å.
Data set [8] concerns the molecule itself. In words: SEC + other: dynamic light scattering; Superdex 200 in 50 mM tris-HCl pH 8.0, 100 mM NaCl; DLS on DynaPro NanoStar, in triplicate; proteins expressed alone or coexpressed and purified by Ni-NTA through the His tag of one of them.
Data set [9] addresses T1, C-terminal domain of CsoS2 (CsoS2-C). The data set is described as follows: cryo-EM structure; purified CsoS1C-based T = 9 mini-shell assembled in E. coli from the coexpressed proteins; 1.8 Å. Conditions: both partners purified.
Data set [10] concerns the molecule itself. The data set is described as above.
Data set [11] has as its target B9. The data set is described as follows: SEC + other: dynamic light scattering; Superdex 200 in 50 mM tris-HCl pH 8.0, 100 mM NaCl; DLS on DynaPro NanoStar, in triplicate; proteins expressed alone or coexpressed and purified by Ni-NTA through the His tag of one of them. The note with it: both partners purified.
For data set [12], the target named is T2, CsoS4A (untagged, coexpressed with …). The description is as above. The note with it: both partners purified.

What is called stoichiometry N is the number of molecules, sites or subunits per partner or assembly. As to B1, the binding result in data set [1] and in data set [3] was “binds” throughout. The “stoichiometry N” value in data set [2] was determined as 5.
Take B2: in data set [4], the “stoichiometry N” value was determined as 5.
Turning to B3, the binding result in [5] was “binds”. The “stoichiometry N” value in data set [2] came out at 6.
As for B4, the “stoichiometry N” value in data set [6] was about 3 CsoS1A per CsoS1B; in data set [7] it was 6.
With B5, in data set [8], the “stoichiometry N” value came to 6.
Regarding B6, the binding result in [9] is reported as “binds”. Besides, the “stoichiometry N” value in data set [10] was determined as 6.
Consider B7, for which the “stoichiometry N” value in [8] was 6.
Turning to B8, in data set [11], the binding result was “binds”.
As to B9, in data set [8], the “stoichiometry N” value was determined as 6.
For the molecule B10, in data set [4], the “stoichiometry N” value was 5. For the same molecule, in [12], the binding result is reported as “binds”.
